Data reported in article PMC11369174 (Molecular Systems Biology, 2024).
Where no end group is shown, it is not given here.

Experiments:
Assay in all cases: fluorescence polarisation; saturation binding: dilution series of the protein domain added to 10 nM FITC-labelled peptide; 50 mM sodium phosphate pH 7.4, 0.05% Tween (protein dialysed in 50 mM sodium phosphate with 1 mM DTT; CASK kinase domain with 100 mM NaCl in addition); quadratic fit; technical triplets
Conditions in all cases: both partners purified
GABARAPL1 ATG8 domain = molecular target: T1, GABARAPL1 ATG8 domain (human)
T1 construct: GABARAPL1, human, ATG8 domain; source: E. coli BL21 (DE3) Gold, purified (glutathione or Ni2+ beads)

MAP1LC3B ATG8 domain = MAP1LC3B ATG8 domain (human, UniProt Q9GZQ8 1-120)
MAP1LC3A ATG8 domain = molecular target: T2, MAP1LC3A ATG8 domain (human)
T2 construct: MAP1LC3A, human, ATG8 domain; source: E. coli BL21 (DE3) Gold, purified (glutathione or Ni2+ beads)

USP7 MATH/TRAF domain = molecular target: T3, USP7 MATH/TRAF domain (human)
T3 construct: USP7, human, MATH/TRAF domain; source: E. coli BL21 (DE3) Gold, purified (glutathione or Ni2+ beads)

| Kd (GABARAPL1 ATG8 domain) | Kd (MAP1LC3B ATG8 domain) | Kd (MAP1LC3A ATG8 domain) | Kd (USP7 MATH/TRAF domain) | Binder |
| --- | --- | --- | --- | --- |
| 3700 nM | 1400 nM | 680 nM |  | DDDWTHLSSK (also: FITC label, position not given here) [FITC-SQSTM1] |
|  |  |  | 500 nM | DYSQPSTSSSIIY (also: FITC label, position not given here) [FITC-MDM2] |
